According to publication doi:10.1101/2025.05.23.655777v1:

System: NCCCC(=O)O
Assay: purified protein
Conditions: fixed pyruvate (6 mM), TAPS pH 9.0, 50 µM PLP, 30 °C

Substance: GABA-AT; GABA aminotransferase 1 (recombinant) (Arabidopsis thaliana)
- Km: 590 ± 200 µM
- kcat: 4.97 s⁻¹
